This passage reports sfGFP reporter fluorescence results from the supplement of paper PMC12783771.

B1: library; a variant is named by its letters at X, in order (parent)
chain: MNIQIGELAKRTACPVVTIRFYEQEGLLPPPGRSRGNFRLYGEEHVERLQFIRHCRSLDMPLSXVRTLLSYRKRPDQDCGEVXMLLDEHXRQVESRIGALLELXHXLVELREACSGARPAQSCGILQGLSDCVCDTRGTTAHXSD

In series [1] the parent is B1. As to the kind of experiment: sfGFP reporter fluorescence (15 h) (µM FITC); higher = higher leak. Conditions: library round: Round 3b; ligand: none. How it is done:
(§1)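 Cell-free biosensing: 1 µL Echo-assembled CFE reactions with linear PbrR variant templates (5 nM) and pPbrR-sfGFP reporter, with 1 µM Pb, 30 µM Zn or no ligand; endpoint sfGFP fluorescence after 15 h at 30 °C calibrated as µM FITC. Round 3b rational combinatorial PbrR mutants; 3 biological replicates.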

Variants of B1 are the subject of series [2]. As to the kind of experiment: sfGFP reporter fluorescence (15 h) (µM FITC); higher = stronger transcriptional activation. To be noted: library round: Round 3b. How it is done: as §1

± gives the standard deviation of the averaged measurements.

As to DFATHR, the results for the sfGFP reporter fluorescence in series [1], in series [2] (ligand: 1 µM Pb) and in series [2] (ligand: 30 µM Zn) were 0.0436 ± 0.0022, 0.053 ± 0.0037 and 0.0482 ± 0.0037, respectively.

Consider KIAVHR, for which the sfGFP reporter fluorescence in series [1] turned out to be 0.0703 ± 0.001; in series [2] (ligand: 1 µM Pb) it was 1.42 ± 0.17; in series [2] (ligand: 30 µM Zn), 0.0998 ± 0.0092.

Regarding KIAVHP, the sfGFP reporter fluorescence in series [1] is 0.0656 ± 0.0055; in series [2] (ligand: 1 µM Pb), 1.12 ± 0.13; in series [2] (ligand: 30 µM Zn), 0.0894 ± 0.011.

Take KIAVHT: the sfGFP reporter fluorescence stood at 0.0616 ± 0.0046 in series [1], 0.924 ± 0.066 in series [2] (ligand: 1 µM Pb) and 0.0797 ± 0.0069 in series [2] (ligand: 30 µM Zn).

As to KNAKET, the values for the sfGFP reporter fluorescence in series [1], in series [2] (ligand: 1 µM Pb) and in series [2] (ligand: 30 µM Zn) were 0.0595 ± 0.0029, 0.248 ± 0.0068 and 0.569 ± 0.068, respectively.

For the variant KNAKER, the sfGFP reporter fluorescence was found to be 0.0626 ± 0.0049 in series [1], 0.296 ± 0.036 in series [2] (ligand: 1 µM Pb) and 0.621 ± 0.066 in series [2] (ligand: 30 µM Zn).

Turning to KNATHR, the results for the sfGFP reporter fluorescence in series [1], in series [2] (ligand: 1 µM Pb) and in series [2] (ligand: 30 µM Zn) were 0.0571 ± 0.0019, 0.412 ± 0.041 and 0.602 ± 0.08, respectively.

KNATHT: the sfGFP reporter fluorescence in series [1] worked out at 0.0681 ± 0.0016; in series [2] (ligand: 1 µM Pb), 0.443 ± 0.015; in series [2] (ligand: 30 µM Zn), 0.764 ± 0.13.

Regarding KIIVHT, the sfGFP reporter fluorescence in series [1] turned out to be 0.053 ± 0.0034; in series [2] (ligand: 1 µM Pb), 0.673 ± 0.034; in series [2] (ligand: 30 µM Zn) it was 0.101 ± 0.015.

Take KIITAT: the sfGFP reporter fluorescence was 0.0466 ± 0.0011 in series [1], 0.39 ± 0.032 in series [2] (ligand: 1 µM Pb) and 0.05466 ± 0.00019 in series [2] (ligand: 30 µM Zn).

With KIITAP, the sfGFP reporter fluorescence came out at 0.0473 ± 0.0044 in series [1], 0.308 ± 0.022 in series [2] (ligand: 1 µM Pb) and 0.051 ± 0.005 in series [2] (ligand: 30 µM Zn).

Turning to KIIKAT, the sfGFP reporter fluorescence in series [1] was determined as 0.0413 ± 0.0042; in series [2] (ligand: 1 µM Pb), 0.17 ± 0.027; in series [2] (ligand: 30 µM Zn), 0.0483 ± 0.0033.

For KFATAR, the sfGFP reporter fluorescence in series [1] was 0.0492 ± 0.0024; in series [2] (ligand: 1 µM Pb), 0.462 ± 0.068; in series [2] (ligand: 30 µM Zn) it was 0.0554 ± 0.0012.

As for KFATAP, the sfGFP reporter fluorescence in series [1] worked out at 0.0501 ± 0.0052; in series [2] (ligand: 1 µM Pb), 0.3845 ± 0.0014; in series [2] (ligand: 30 µM Zn), 0.0524 ± 0.00067.

In the case of KFATAT, the sfGFP reporter fluorescence in series [1] was 0.0465 ± 0.0042; in series [2] (ligand: 1 µM Pb), 0.455 ± 0.007; in series [2] (ligand: 30 µM Zn) it was 0.056 ± 0.0037.

For KFAVEP, the sfGFP reporter fluorescence in series [1] came to 0.0452 ± 0.0037; in series [2] (ligand: 1 µM Pb) it was 0.533 ± 0.03; in series [2] (ligand: 30 µM Zn) it was 0.0557 ± 0.0048.

Consider KFAVET, for which the sfGFP reporter fluorescence in series [1] worked out at 0.0489 ± 0.0017; in series [2] (ligand: 1 µM Pb) it was 0.41 ± 0.071; in series [2] (ligand: 30 µM Zn), 0.0549 ± 0.0017.

Take KFAVER: the sfGFP reporter fluorescence in series [1] is 0.0512 ± 0.0022; in series [2] (ligand: 1 µM Pb), 0.51 ± 0.029; in series [2] (ligand: 30 µM Zn) it was 0.056 ± 0.0049.

For DNATER, the sfGFP reporter fluorescence in series [1] was found to be 0.0446 ± 0.0017; in series [2] (ligand: 1 µM Pb), 0.0458 ± 0.0017; in series [2] (ligand: 30 µM Zn) it was 0.0522 ± 0.0022.

DNATET: the results for the sfGFP reporter fluorescence in series [1], in series [2] (ligand: 1 µM Pb) and in series [2] (ligand: 30 µM Zn) were 0.0419 ± 0.00051, 0.0463 ± 0.0026 and 0.0623 ± 0.0031, respectively.

For DNAVAR, the sfGFP reporter fluorescence was determined as 0.0458 ± 0.0027 in series [1], 0.0485 ± 0.0025 in series [2] (ligand: 1 µM Pb) and 0.0579 ± 0.0046 in series [2] (ligand: 30 µM Zn).

Regarding DNAVAT, the sfGFP reporter fluorescence in series [1] stood at 0.0419 ± 0.0015; in series [2] (ligand: 1 µM Pb), 0.0454 ± 0.0015; in series [2] (ligand: 30 µM Zn), 0.0637 ± 0.0046.

DIITET: the sfGFP reporter fluorescence in series [1] turned out to be 0.0436 ± 0.0034; in series [2] (ligand: 1 µM Pb) it was 0.0535 ± 0.002; in series [2] (ligand: 30 µM Zn) it was 0.047 ± 0.0035.

For DIITER, the sfGFP reporter fluorescence turned out to be 0.0474 ± 0.0038 in series [1], 0.0576 ± 0.0022 in series [2] (ligand: 1 µM Pb) and 0.0446 ± 0.0022 in series [2] (ligand: 30 µM Zn).

Regarding DFAKAT, the sfGFP reporter fluorescence came to 0.0421 ± 0.0041 in series [1], 0.0502 ± 0.0044 in series [2] (ligand: 1 µM Pb) and 0.04614 ± 0.00019 in series [2] (ligand: 30 µM Zn).

With DFAKAR, the sfGFP reporter fluorescence stood at 0.0429 ± 0.0064 in series [1], 0.0535 ± 0.005 in series [2] (ligand: 1 µM Pb) and 0.0435 ± 0.0051 in series [2] (ligand: 30 µM Zn).

On to DIATAP, for which the sfGFP reporter fluorescence came out at 0.0413 ± 0.0051 in series [1], 0.087 ± 0.01 in series [2] (ligand: 1 µM Pb) and 0.0433 ± 0.0057 in series [2] (ligand: 30 µM Zn).

As to DIATAR, the sfGFP reporter fluorescence was 0.0427 ± 0.0029 in series [1], 0.0781 ± 0.014 in series [2] (ligand: 1 µM Pb) and 0.0423 ± 0.0034 in series [2] (ligand: 30 µM Zn).

DIATAT: the results for the sfGFP reporter fluorescence in series [1], in series [2] (ligand: 1 µM Pb) and in series [2] (ligand: 30 µM Zn) were 0.0409 ± 0.0016, 0.112 ± 0.0062 and 0.0458 ± 0.00085, respectively.

Consider KNAKAT, for which the figures for the sfGFP reporter fluorescence in series [1], in series [2] (ligand: 1 µM Pb) and in series [2] (ligand: 30 µM Zn) were 0.0671 ± 0.0058, 0.353 ± 0.02 and 0.795 ± 0.18, respectively.

For the variant KNAKAR, the values for the sfGFP reporter fluorescence in series [1], in series [2] (ligand: 1 µM Pb) and in series [2] (ligand: 30 µM Zn) were 0.0687 ± 0.0037, 0.394 ± 0.045 and 0.754 ± 0.11, respectively.

Consider KNATET, for which the results for the sfGFP reporter fluorescence in series [1], in series [2] (ligand: 1 µM Pb) and in series [2] (ligand: 30 µM Zn) were 0.055 ± 0.0007, 0.324 ± 0.017 and 0.34 ± 0.031, respectively.

For the variant KNATEP, the sfGFP reporter fluorescence in series [1] came out at 0.0501 ± 0.0039; in series [2] (ligand: 1 µM Pb) it was 0.279 ± 0.052; in series [2] (ligand: 30 µM Zn), 0.261 ± 0.015.

As to KNATER, the sfGFP reporter fluorescence in series [1] was determined as 0.0529 ± 0.0011; in series [2] (ligand: 1 µM Pb), 0.343 ± 0.014; in series [2] (ligand: 30 µM Zn) it was 0.336 ± 0.035.

Consider DIAKAT, for which the sfGFP reporter fluorescence came to 0.0356 ± 0.0029 in series [1], 0.0683 ± 0.0046 in series [2] (ligand: 1 µM Pb) and 0.0346 in series [2] (ligand: 30 µM Zn).

Turning to DIAKAR, the values for the sfGFP reporter fluorescence in series [1], in series [2] (ligand: 1 µM Pb) and in series [2] (ligand: 30 µM Zn) were 0.0442 ± 0.0031, 0.0673 ± 0.0063 and 0.045 ± 0.0015, respectively.

Consider DFAKET, for which the sfGFP reporter fluorescence in series [1] was 0.037 ± 0.0032; in series [2] (ligand: 1 µM Pb), 0.0413 ± 0.00089; in series [2] (ligand: 30 µM Zn) it was 0.0436 ± 0.0024.

Turning to DFAKER, the sfGFP reporter fluorescence in series [1] amounted to 0.044 ± 0.0022; in series [2] (ligand: 1 µM Pb), 0.0459 ± 0.002; in series [2] (ligand: 30 µM Zn) it was 0.0423 ± 0.00089.

Regarding DFIVER, the values for the sfGFP reporter fluorescence in series [1], in series [2] (ligand: 1 µM Pb) and in series [2] (ligand: 30 µM Zn) were 0.0476 ± 0.0017, 0.0836 ± 0.0022 and 0.0461 ± 0.001, respectively.

Consider DFIVET, for which the sfGFP reporter fluorescence in series [1] is 0.0435 ± 0.0054; in series [2] (ligand: 1 µM Pb) it was 0.0785 ± 0.0019; in series [2] (ligand: 30 µM Zn), 0.0449 ± 0.0017.

Regarding DNATAR, the sfGFP reporter fluorescence in series [1] is 0.0439 ± 0.0034; in series [2] (ligand: 1 µM Pb) it was 0.0477 ± 0.0023; in series [2] (ligand: 30 µM Zn), 0.0627 ± 0.0048.

For DNATAT, the values for the sfGFP reporter fluorescence in series [1], in series [2] (ligand: 1 µM Pb) and in series [2] (ligand: 30 µM Zn) were 0.0419 ± 0.0058, 0.0459 ± 0.0022 and 0.059 ± 0.0073, respectively.

Take KIIVEP: the sfGFP reporter fluorescence came to 0.0554 ± 0.0036 in series [1], 0.372 ± 0.031 in series [2] (ligand: 1 µM Pb) and 0.0556 ± 0.0028 in series [2] (ligand: 30 µM Zn).

For the variant KIIVET, the results for the sfGFP reporter fluorescence in series [1], in series [2] (ligand: 1 µM Pb) and in series [2] (ligand: 30 µM Zn) were 0.0535 ± 0.0022, 0.346 ± 0.015 and 0.0557 ± 0.0014, respectively.
